From paper PMC4359615 (Journal of Structural Biology, 2015)

B1: A135 subunit of RNA polymerase I (natural protein, S. cerevisiae)
chain: MSKVIKPPGQARTADFRTLERESRFINPPKDKSAFPLLQEAVQPHIGSFNALTEGPDGGLLNLGVKDIGEKVIFDGKPLNSEDEISNSGYLGNKLSVSVEQVSIAKPMSNDGVSSAVERKVYPSESRQRLTSYRGKLLLKLKWSVNNGEENLFEVRDCGGLPVMLQSNRCHLNKMSPYELVQHKEESDEIGGYFIVNGIEKLIRMLIVQRRNHPMAIIRPSFANRGASYSHYGIQIRSVRPDQTSQTNVLHYLNDGQVTFRFSWRKNEYLVPVVMILKALCHTSDREIFDGIIGNDVKDSFLTDRLELLLRGFKKRYPHLQNRTQVLQYLGDKFRVVFQASPDQSDLEVGQEVLDRIVLVHLGKDGSQDKFRMLLFMIRKLYSLVAGECSPDNPDATQHQEVLLGGFLYGMILKEKIDEYLQNIIAQVRMDINRGMAINFKDKRYMSRVLMRVNENIGSKMQYFLSTGNLVSQSGLDLQQVSGYTVVAEKINFYRFISHFRMVHRGSFFAQLKTTTVRKLLPESWGFLCPVHTPDGSPCGLLNHFAHKCRISTQQSDVSRIPSILYSLGVAPASHTFAAGPSLCCVQIDGKIIGWVSHEQGKIIADTLRYWKVEGKTPGLPIDLEIGYVPPSTRGQYPGLYLFGGHSRMLRPVRYLPLDKEDIVGPFEQVYMNIAVTPQEIQNNVHTHVEFTPTNILSILANLTPFSDFNQSPRNMYQCQMGKQTMGTPGVALCHRSDNKLYRLQTGQTPIVKANLYDDYGMDNFPNGFNAVVAVISYTGYDMDDAMIINKSADERGFGYGTMYKTEKVDLALNRNRGDPITQHFGFGNDEWPKEWLEKLDEDGLPYIGTYVEEGDPICAYFDDTLNKTKIKTYHSSEPAYIEEVNLIGDESNKFQELQTVSIKYRIRRTPQIGDKFSSRHGQKGVCSRKWPTIDMPFSETGIQPDIIINPHAFPSRMTIGMFVESLAGKAGALHGIAQDSTPWIFNEDDTPADYFGEQLAKAGYNYHGNEPMYSGATGEELRADIYVGVVYYQRLRHMVNDKFQVRSTGPVNSLTMQPVKGRKRHGGIRVGEMERDALIGHGTSFLLQDRLLNSSDYTQASVCRECGSILTTQQSVPRIGSISTVCCRRCSMRFEDAKKLLTKSEDGEKIFIDDSQIWEDGQGNKFVGGNETTTVAIPFVLKYLDSELSAMGIRLRYNVEPK

Columns and labels:
[1] = target: B1; assay: cross-linking
[2] = target: A190 subunit of RNA polymerase I (S. cerevisiae, UniProt P10964 1-1664); assay: cross-linking
Chain of A190 subunit of RNA polymerase I (P10964 whole entry): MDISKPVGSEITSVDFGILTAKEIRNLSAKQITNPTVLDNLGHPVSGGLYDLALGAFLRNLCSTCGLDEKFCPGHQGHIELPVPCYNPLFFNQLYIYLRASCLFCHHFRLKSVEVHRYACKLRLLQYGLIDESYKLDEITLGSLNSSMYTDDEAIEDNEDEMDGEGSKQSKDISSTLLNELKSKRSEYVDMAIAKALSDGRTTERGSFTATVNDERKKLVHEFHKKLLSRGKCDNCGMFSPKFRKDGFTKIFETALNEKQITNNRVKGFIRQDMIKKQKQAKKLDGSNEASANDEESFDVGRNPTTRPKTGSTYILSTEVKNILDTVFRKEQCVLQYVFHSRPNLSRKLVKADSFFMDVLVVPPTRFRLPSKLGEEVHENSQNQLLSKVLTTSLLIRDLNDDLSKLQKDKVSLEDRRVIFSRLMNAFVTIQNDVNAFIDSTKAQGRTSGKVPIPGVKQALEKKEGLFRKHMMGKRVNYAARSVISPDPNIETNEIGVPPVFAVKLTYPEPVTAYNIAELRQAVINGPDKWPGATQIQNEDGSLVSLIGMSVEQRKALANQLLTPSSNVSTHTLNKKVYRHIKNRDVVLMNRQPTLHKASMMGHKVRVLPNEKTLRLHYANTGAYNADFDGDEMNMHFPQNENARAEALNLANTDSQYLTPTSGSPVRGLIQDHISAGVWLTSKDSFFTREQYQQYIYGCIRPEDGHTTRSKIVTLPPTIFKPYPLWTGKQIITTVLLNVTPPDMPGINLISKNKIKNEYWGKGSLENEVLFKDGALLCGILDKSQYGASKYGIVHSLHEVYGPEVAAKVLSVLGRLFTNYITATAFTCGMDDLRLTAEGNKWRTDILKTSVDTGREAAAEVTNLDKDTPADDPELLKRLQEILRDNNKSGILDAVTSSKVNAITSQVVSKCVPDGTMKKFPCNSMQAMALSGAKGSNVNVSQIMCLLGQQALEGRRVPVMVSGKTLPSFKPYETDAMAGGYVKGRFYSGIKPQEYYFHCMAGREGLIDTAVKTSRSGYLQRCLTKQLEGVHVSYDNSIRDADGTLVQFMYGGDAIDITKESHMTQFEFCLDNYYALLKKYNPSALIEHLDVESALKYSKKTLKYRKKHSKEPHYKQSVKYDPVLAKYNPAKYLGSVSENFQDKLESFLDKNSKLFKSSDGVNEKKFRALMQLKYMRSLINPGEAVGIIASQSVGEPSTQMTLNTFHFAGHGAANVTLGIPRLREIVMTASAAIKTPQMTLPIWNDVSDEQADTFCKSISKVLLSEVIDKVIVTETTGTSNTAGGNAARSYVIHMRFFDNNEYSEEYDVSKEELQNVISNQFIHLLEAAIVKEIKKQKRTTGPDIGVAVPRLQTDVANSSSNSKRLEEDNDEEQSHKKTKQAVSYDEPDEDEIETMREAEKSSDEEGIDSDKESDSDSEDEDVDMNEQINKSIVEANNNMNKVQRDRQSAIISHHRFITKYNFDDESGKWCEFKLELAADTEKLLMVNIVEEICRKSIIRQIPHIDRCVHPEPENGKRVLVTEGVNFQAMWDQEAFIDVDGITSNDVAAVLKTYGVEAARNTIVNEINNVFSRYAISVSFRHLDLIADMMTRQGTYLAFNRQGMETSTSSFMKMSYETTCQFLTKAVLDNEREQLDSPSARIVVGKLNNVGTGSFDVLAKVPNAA

Row | binding result [1] | binding result [2] | Binder
1 | binds | binds | A49 subunit of RNA polymerase I (natural protein, S. cerevisiae) MSVKRSVSEIEIESVQDQPSVAVGSFFKGFRAPSDTTFDLYKKKKSEKDEFVLHGENERLEYEGYTDSSSQASNQYVVGLFNPEKKSIQLYKAPVLVSKVVSKSSKNLRGPKIKSKSDTRPSALRNALGEAFGTKKAKKAIADLERNRIDSDKLTDSAIDIVDSVRTASKDLPTRAQLDEITSNDRPTPLANIDATDVEQIYPIESIIPKKELQFIRVSSILKEADKEKKLELFPYQNNSKYVAKKLDSLTQPSQMTKLQLLYYLSLLLGVYENRRVNNKTKLLERLNSPPEILVDGILSRFTVIKPGQFGRSKDRSYFIDPQNEDKILCYILAIIMHLDNFIVEITPLAHELNLKPSKVVSLFRVLGAIVKGATVAQAEAFGIPKSTAASYKIATMKVPFKLPEMTRRGRGPRR
2 | – | binds | B1
